Columns and labels:
[1] = target: T1, SRCRP2-11-R (Homo sapiens, UniProt Q9UGM3, E4R); assay: EMSA
T1 chain: GRVRVLYRGSW

[2] = target: T2, SRCRP2-11 (Homo sapiens, UniProt Q9UGM3); assay: EMSA
T2 chain: GRVEVLYRGSW

B1: tdTomato1 siRNA (dsRNA)
RNA 1: UUGGUGUCCACGUAGUAGUAG
RNA 2: CUACUACUACGUGGACACCAA
- binding result [1]: binds
- binding result [2]: binds
